Data published in the supplement of paper PMC7125110.
± gives the standard error. Variants at the floor of the assay were thinned out.

B1: glmS ribozyme (parent)
chain: AUAAAAGCGCCAGAACUACAGAAAUGUAGUUGACGAGGAGGAGGUUUAUCGAAUUUUCGGCGGAUGCCUCCAAA

Legend:
Settings in all cases: with glucosamine-6-phosphate
glucosamine-6-phosphate [1] = variants of: B1; test: self-cleavage kobs at 40 uM GlcN6P; higher = faster cleavage; RNA array
Method in brief: (§1)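 Tracking of barcoded ribozyme variants used a hybridised Cy3 probe at 37 °C, after in situ transcription by E. coli RNA polymerase on sequenced MiSeq chips. The flowed solution held 40 μM to 10 mM glucosamine-6-phosphate in HEPES/KCl/Mg(OAc)2 buffer, and imaging ran over ~14 h. kobs was taken from exponential decay fits of normalised per-tile medians, and kcat and KM from weighted Michaelis–Menten fits.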

glucosamine-6-phosphate [2] = variants of: B1; test: self-cleavage kobs at 160 uM GlcN6P; higher = faster cleavage; RNA array
Method in brief: as §1

glucosamine-6-phosphate [3] = variants of: B1; test: self-cleavage kobs at 640 uM GlcN6P; higher = faster cleavage; RNA array
Method in brief: as §1

glucosamine-6-phosphate [4] = variants of: B1; test: self-cleavage kobs at 10000 uM GlcN6P; higher = faster cleavage; RNA array
Method in brief: as §1

glucosamine-6-phosphate [5] = variants of: B1; test: self-cleavage kobs at 2500 uM GlcN6P; higher = faster cleavage; RNA array
Method in brief: as §1

Row | Variant | self-cleavage kobs at 40 uM GlcN6P (glucosamine-6-phosphate [1]) | self-cleavage kobs at 160 uM GlcN6P (glucosamine-6-phosphate [2]) | self-cleavage kobs at 640 uM GlcN6P (glucosamine-6-phosphate [3]) | self-cleavage kobs at 10000 uM GlcN6P (glucosamine-6-phosphate [4]) | self-cleavage kobs at 2500 uM GlcN6P (glucosamine-6-phosphate [5])
1 | AUAAAAGAGCCAGAACUACAGAAAUGUAGUUGACGAGCAGGAGGUUUAUCGAAUUUUCGGCGGAUGCCUCCAAA | < 1e-05 s⁻¹ | < 1e-05 s⁻¹ | < 1e-05 s⁻¹ | < 1e-05 s⁻¹ | 
2 | AUAAAAGGGCCAGAACUACAGAAAUGUAGUUGACGAGGAGGAGGUUUUUCGAAUUUUCGGCGGAUGCCUCGAAA | < 1e-05 s⁻¹ |  |  | < 1e-05 s⁻¹ | 
3 | AUAAAAGAGCCAGAACUACAGAAAUGUAGUUGACGAGGAGGAGGUUUAUCGAAUUUUCGGCCGAUGCCUCCAAA | < 1e-05 s⁻¹ |  | < 1e-05 s⁻¹ | < 1e-05 s⁻¹ | < 1e-05 s⁻¹
4 | AUAAAAGAGCCAGAACUACAGAAAUGUAGUAGACGAGGAGGAGGUUUAUGGAUUUUUCGGCGGAUGCCUACAAA | 0.000306 ± 7.3e-05 s⁻¹ |  |  | 0.000515 ± 0.00016 s⁻¹ | 
5 | AUAAAAGAGCCAGAACUACAGAAAUGUAGUUGACGAGGAAGAGGUUUAUCGAAUUUUCGGCGGAUGCCUCCAAA | < 1e-05 s⁻¹ |  | < 1e-05 s⁻¹ |  | < 1e-05 s⁻¹
6 | AUAAAAGAGCCAGAACUACAGAAAUGUAGUUGACGAGGAGGAGGUUUAUCGAAUUUUCGGCGGAUGGGUCCAAA | 5.09e-05 ± 1.9e-05 s⁻¹ |  | 0.000231 ± 5.6e-05 s⁻¹ | 4.91e-05 ± 1.2e-05 s⁻¹ | 
7 | AUAAAAGAGCCAGAACUACAGAAAUGUAGUUGACGAGGAGGAGGUUUAUCGAAUUUUCGGCGGAUGCCGCCAAA | 8.97e-05 ± 2.7e-05 s⁻¹ |  | 0.000846 ± 0.00027 s⁻¹ | 0.000773 ± 0.00027 s⁻¹ | 0.000592 ± 0.00028 s⁻¹
8 | AUAAAAGAGCCAGAACUACAGAAAUGUAGUUGACGAGGAGGAGGUUUAUCGAAUUUACGGCGAAUGCCUCCAAA | < 1e-05 s⁻¹ |  |  |  | < 1e-05 s⁻¹
9 | AUAAAAGAGCCAGAACUACAGAAAUGUAAUUGACGAGGAGGAGGUUUAUCUAAUUUUCGGCGGAUGCCUCCAAA | < 1e-05 s⁻¹ |  |  | < 1e-05 s⁻¹ | 
10 | AUAAAAGAGCCAGAACUACAGAAAUGUAGUUGACGAGGAGGAGGUUUAUCGAAUUUUGGGCGGAUGCCUCCAAA | < 1e-05 s⁻¹ | < 1e-05 s⁻¹ | < 1e-05 s⁻¹ |  | 
11 | AUAAAAGGGCCAGAGCUACAGAAAUGUAGUUGACGAGGAGGAGGUUUAUCGAAUUUUCGGCGGAUGCCUCCAAA | < 1e-05 s⁻¹ | < 1e-05 s⁻¹ | < 1e-05 s⁻¹ | < 1e-05 s⁻¹ | < 1e-05 s⁻¹
12 | AUAAAAGGGCCAGGACUACAGAAAUGUAGUUGACGAGGAGGAGGUUUAUCGAAUGUUCGGCGGAUGCCUCCAAA | < 1e-05 s⁻¹ |  |  | < 1e-05 s⁻¹ | < 1e-05 s⁻¹
13 | AUAAAAGAGCCAGAACUACAGAAAUGUAGUUGACGAGGAGGAGGUUUAUCGAAUUUUCCGCGGAUGCCUCCAAA | < 1e-05 s⁻¹ |  | < 1e-05 s⁻¹ |  | < 1e-05 s⁻¹
14 | AUAAAAGAGCCAGAACUACAGAAAUGUAUUUGACGAGGAGGAGGUUUAUCGAAUUUACGGCCGAUGUCUCCAAA | < 1e-05 s⁻¹ |  |  |  | 
15 | AUAAAAGGGCCCGAACUACAGAAAUGUAGUCCACGAGGAGGAGGUUUAUCGAAUUUUCGGCGGAUGCCUCCAAA | < 1e-05 s⁻¹ |  |  |  | 
16 | AUAAAAGAGCCAGAACUACAGAAAUGUAGUUGACCAGGAGGAGGUUUCUCGAAUUUUCGACGGAUGCCUCCAAA | < 1e-05 s⁻¹ |  |  |  | 
17 | AUAAAAGGGCCAGAACUACAGAAAUGUAGUUGUCGAGGAGGAGGUUUAUCGAAUUUUCGGCGGAUGCCUCCAAA | < 1e-05 s⁻¹ | < 1e-05 s⁻¹ | < 1e-05 s⁻¹ | < 1e-05 s⁻¹ | < 1e-05 s⁻¹
18 | AUAAAAGGGCCAGAACUACAGAAAUGUAGUUGACGAGGGGGAGGUUUAUCGAAUUUUCCGCGGAUGCCUCCAAA | < 1e-05 s⁻¹ |  |  | < 1e-05 s⁻¹ | 
19 | AUAAAAGAGCCAGAACUACAGAAAUGUAGUUGACGAGGAGGAUGUUUAUCGAAUUUUCGGCGGAUGCCUCCAAA | < 1e-05 s⁻¹ |  |  | < 1e-05 s⁻¹ | < 1e-05 s⁻¹
20 | AUAAAAGAGCCAGAACUACAGAAAUGUAGUAGACGAGGAGGAGGUUUAUCGAAUUUUCGGCGGAUGCCUCCAAA | < 1e-05 s⁻¹ |  |  |  | 
21 | AUAAAAGAGCCAGAACUACAGAAAUGUAGUUGACCAGGAGGAGGUUUAUCGAAUUUUCGGCGGAUGACUCCAAA | < 1e-05 s⁻¹ | < 1e-05 s⁻¹ | < 1e-05 s⁻¹ |  | 
22 | AUAAAAGAGCCAGAACUACAGAAAUGUAGUUGACGAAGAGGAGGUUUAUCGAAUUUUCGGCGGAUGCCUCCAAA | < 1e-05 s⁻¹ |  |  | < 1e-05 s⁻¹ | 
23 | AUAAAAGAGCCAGAACUACAGAAAUGUAGUUGACGAGGAGGAGGUUUAUCGAAUUAUCGGCGGAUGCCUCCAAA | < 1e-05 s⁻¹ | < 1e-05 s⁻¹ | < 1e-05 s⁻¹ | < 1e-05 s⁻¹ | < 1e-05 s⁻¹
24 | AUAAAAGAGCCAGAACUACAGAAAUGUAGUUGACGAGGAGGAGGUUUAUCGAAUUUUCGGCGGAUCCCUCCAAA | < 1e-05 s⁻¹ |  |  |  | < 1e-05 s⁻¹
25 | AUAAAAGAGCCAAAACUACAGAAAUGUAGUUGACGAGGAGGAGGUUUAUCGAAUUUUCGGCGGAUGCCUCCAAA | < 1e-05 s⁻¹ | < 1e-05 s⁻¹ | < 1e-05 s⁻¹ | < 1e-05 s⁻¹ | < 1e-05 s⁻¹
26 | AUAAAAGGGCCAGAACUACAGAAAUGUAGUUGACGUGGAGGAGGUUUAUCGAAUUUUCGCCGGAUGCCUCCAAA | < 1e-05 s⁻¹ |  |  | < 1e-05 s⁻¹ | 
27 | AUAAAAGAGCCAGAACUACAGAAAUGUAGAUGACGAGGAGGAGGUUUGUCGAAUUUUCGGCGGAUGCCUCCAAA | < 1e-05 s⁻¹ |  |  | < 1e-05 s⁻¹ | 
